Test results published in patent US8242083B2, “Kinase substrates” (PerkinElmer Health Sciences, Inc., priority 2008, dated 2012).

How the values were obtained:
Assay type in all cases: biochemical
ABL [T315I] (ABL1) = ABL [T315I] (ABL1) (Homo sapiens, UniProt P00519, T315I); assay: TR-FRET kinase assay, ABL [T315I]; conditions: Kinase Concentration 0.5 nM; 50 nM ULight-labeled substrate, 200 micromolar ATP, 2 hours
Protocol: (§1) TR-FRET kinase assays are performed under standardized conditions: various individual kinases are incubated with 50 nM of kinase substrate BRB1 labeled with the TR-FRET acceptor dye ULight (PerkinElmer) and 200 micromolar ATP in 10 μL of kinase assay buffer (50 mM HEPES pH7.5, 10 mM MgCl2, 3 mM MnCl2, 1 mM EGTA, 2 mM DTT and 0.01% Tween-20) for 2 hours at room temperature. Reactions are stopped with EDTA, and anti-phospho-tyrosine antibodies (clone PT66) labeled with the TR-FRET europium chelate donor dye are added to a final concentration of 2 nM in a final volume of 20 μL. The TR-FRET signal emitted at 665 nm is read one hour after the addition of antibodies using a TR-FRET plate reader such as the Envision® Multilabel Plate reader (PerkinElmer). The emitted signal at 665 nm is proportional to the extent of peptide phosphorylation, Control reactions indicative of background are performed excluding ATP from the reaction.
(§2) Assay conditions are identical to those used described for FIG. 1.

BMX = target: T1, BMX (Homo sapiens, UniProt P51813); assay: TR-FRET kinase assay, BMX; conditions: Kinase Concentration 0.5 nM; 50 nM ULight-labeled substrate, 200 micromolar ATP, 2 hours
T1 sequence (P51813 1-675): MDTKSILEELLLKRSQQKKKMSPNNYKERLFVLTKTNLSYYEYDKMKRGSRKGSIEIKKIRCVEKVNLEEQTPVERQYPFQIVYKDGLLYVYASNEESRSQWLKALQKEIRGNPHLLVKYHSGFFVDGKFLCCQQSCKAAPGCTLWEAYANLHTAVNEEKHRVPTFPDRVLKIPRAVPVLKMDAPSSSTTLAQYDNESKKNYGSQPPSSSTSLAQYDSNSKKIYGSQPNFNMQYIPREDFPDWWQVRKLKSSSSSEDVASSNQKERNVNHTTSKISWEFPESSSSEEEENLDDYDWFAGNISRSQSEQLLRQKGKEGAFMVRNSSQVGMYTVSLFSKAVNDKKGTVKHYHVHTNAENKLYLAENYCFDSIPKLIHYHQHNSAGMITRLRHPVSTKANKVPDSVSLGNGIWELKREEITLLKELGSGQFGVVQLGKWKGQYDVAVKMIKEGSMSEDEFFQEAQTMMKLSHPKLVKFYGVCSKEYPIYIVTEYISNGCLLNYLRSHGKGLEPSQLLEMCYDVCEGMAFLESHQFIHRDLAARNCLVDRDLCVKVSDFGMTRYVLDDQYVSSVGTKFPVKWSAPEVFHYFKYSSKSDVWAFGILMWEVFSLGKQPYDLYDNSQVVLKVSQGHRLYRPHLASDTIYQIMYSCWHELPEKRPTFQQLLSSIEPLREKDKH
Protocol: as §1, §2

BTK = BTK (Homo sapiens, UniProt Q06187); assay: TR-FRET kinase assay, BTK; conditions: Kinase Concentration 0.25 nM; 50 nM ULight-labeled substrate, 200 micromolar ATP, 2 hours
Protocol: as §1, §2

FGR = FGR (Homo sapiens, UniProt P09769); assay: TR-FRET kinase assay, FGR; conditions: Kinase Concentration 0.1 nM; 50 nM ULight-labeled substrate, 200 micromolar ATP, 2 hours
Protocol: as §1, §2

PYK2 = PYK2 (Homo sapiens, UniProt Q14289); assay: TR-FRET kinase assay, PYK2; conditions: Kinase Concentration 0.25 nM; 50 nM ULight-labeled substrate, 200 micromolar ATP, 2 hours
Protocol: as §1, §2

SRC = SRC (Homo sapiens, UniProt P12931); assay: TR-FRET kinase assay, SRC; conditions: Kinase Concentration 0.5 nM; 50 nM ULight-labeled substrate, 200 micromolar ATP, 2 hours
Protocol: as §1, §2

SYK = SYK (Homo sapiens, UniProt P43405); assay: TR-FRET kinase assay, SYK; conditions: Kinase Concentration 0.5 nM; 50 nM ULight-labeled substrate, 200 micromolar ATP, 2 hours
Protocol: as §1, §2

DGFR [T790M] = DGFR [T790M] (Homo sapiens, UniProt P00533, T790M); assay: TR-FRET kinase assay, DGFR [T790M]; conditions: Kinase Concentration 0.5 nM; 50 nM ULight-labeled substrate, 200 micromolar ATP, 2 hours
Protocol: as §1, §2

FGFR1 = FGFR1 (Homo sapiens, UniProt P11362); assay: TR-FRET kinase assay, FGFR1; conditions: Kinase Concentration 0.5 nM; 50 nM ULight-labeled substrate, 200 micromolar ATP, 2 hours
Protocol: as §1, §2

FGFR4 = FGFR4 (Homo sapiens, UniProt P22455); assay: TR-FRET kinase assay, FGFR4; conditions: Kinase Concentration 3 nM; 50 nM ULight-labeled substrate, 200 micromolar ATP, 2 hours
Protocol: as §1, §2

MUSK = target: T2, MUSK (Homo sapiens, UniProt O15146); assay: TR-FRET kinase assay, MUSK; conditions: Kinase Concentration 1 nM; 50 nM ULight-labeled substrate, 200 micromolar ATP, 2 hours
T2 sequence (O15146 24-869): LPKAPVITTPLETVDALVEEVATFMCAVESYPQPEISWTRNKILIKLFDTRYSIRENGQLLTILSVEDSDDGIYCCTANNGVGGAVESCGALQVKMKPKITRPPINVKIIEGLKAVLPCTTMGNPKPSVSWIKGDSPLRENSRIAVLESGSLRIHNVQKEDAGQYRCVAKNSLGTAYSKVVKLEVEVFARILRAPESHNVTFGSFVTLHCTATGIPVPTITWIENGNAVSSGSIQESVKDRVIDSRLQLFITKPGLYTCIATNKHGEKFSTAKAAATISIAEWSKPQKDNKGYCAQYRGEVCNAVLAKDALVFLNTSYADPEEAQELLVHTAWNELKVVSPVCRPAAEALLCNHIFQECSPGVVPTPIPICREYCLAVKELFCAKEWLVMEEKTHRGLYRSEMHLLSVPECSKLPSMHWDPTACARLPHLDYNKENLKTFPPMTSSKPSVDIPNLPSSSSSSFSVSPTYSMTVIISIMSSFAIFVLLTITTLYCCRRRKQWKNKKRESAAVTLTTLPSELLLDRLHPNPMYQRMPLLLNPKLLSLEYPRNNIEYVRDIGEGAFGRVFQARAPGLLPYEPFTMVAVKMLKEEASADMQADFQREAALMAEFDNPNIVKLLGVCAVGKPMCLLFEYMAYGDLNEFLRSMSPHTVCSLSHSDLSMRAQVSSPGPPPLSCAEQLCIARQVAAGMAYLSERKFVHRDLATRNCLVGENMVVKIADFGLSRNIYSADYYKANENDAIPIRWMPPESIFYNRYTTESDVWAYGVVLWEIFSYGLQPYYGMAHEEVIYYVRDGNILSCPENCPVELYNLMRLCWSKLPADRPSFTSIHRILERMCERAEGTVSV
Protocol: as §1, §2

RET = RET (Homo sapiens, UniProt P07949); assay: TR-FRET kinase assay, RET; conditions: Kinase Concentration 0.5 nM; 50 nM ULight-labeled substrate, 200 micromolar ATP, 2 hours
Protocol: as §1, §2

TRKC (NTRK3) = TRKC (NTRK3) (Homo sapiens, UniProt Q16288); assay: TR-FRET kinase assay, TRKC (NTRK3); conditions: Kinase Concentration 0.5 nM; 50 nM ULight-labeled substrate, 200 micromolar ATP, 2 hours
Protocol: as §1, §2

Chain of BTK (Q06187 whole entry, species assumed): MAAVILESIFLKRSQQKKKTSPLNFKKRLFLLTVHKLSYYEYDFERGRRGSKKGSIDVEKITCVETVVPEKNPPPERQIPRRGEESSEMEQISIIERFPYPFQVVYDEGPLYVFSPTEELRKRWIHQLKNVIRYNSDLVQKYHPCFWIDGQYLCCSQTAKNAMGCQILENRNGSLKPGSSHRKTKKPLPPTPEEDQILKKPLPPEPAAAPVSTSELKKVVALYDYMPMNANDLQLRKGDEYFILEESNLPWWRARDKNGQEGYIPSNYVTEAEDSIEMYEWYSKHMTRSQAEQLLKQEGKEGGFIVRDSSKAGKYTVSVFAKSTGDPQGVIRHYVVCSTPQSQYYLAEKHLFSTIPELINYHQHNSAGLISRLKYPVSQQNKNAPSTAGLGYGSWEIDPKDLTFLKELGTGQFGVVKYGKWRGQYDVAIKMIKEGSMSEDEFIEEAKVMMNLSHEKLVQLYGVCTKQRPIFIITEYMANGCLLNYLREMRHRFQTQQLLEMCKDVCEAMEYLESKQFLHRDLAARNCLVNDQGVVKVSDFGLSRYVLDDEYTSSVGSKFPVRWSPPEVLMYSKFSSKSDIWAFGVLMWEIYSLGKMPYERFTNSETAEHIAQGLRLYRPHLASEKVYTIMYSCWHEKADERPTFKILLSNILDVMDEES
Chain of FGFR1 (P11362 22-822, species assumed): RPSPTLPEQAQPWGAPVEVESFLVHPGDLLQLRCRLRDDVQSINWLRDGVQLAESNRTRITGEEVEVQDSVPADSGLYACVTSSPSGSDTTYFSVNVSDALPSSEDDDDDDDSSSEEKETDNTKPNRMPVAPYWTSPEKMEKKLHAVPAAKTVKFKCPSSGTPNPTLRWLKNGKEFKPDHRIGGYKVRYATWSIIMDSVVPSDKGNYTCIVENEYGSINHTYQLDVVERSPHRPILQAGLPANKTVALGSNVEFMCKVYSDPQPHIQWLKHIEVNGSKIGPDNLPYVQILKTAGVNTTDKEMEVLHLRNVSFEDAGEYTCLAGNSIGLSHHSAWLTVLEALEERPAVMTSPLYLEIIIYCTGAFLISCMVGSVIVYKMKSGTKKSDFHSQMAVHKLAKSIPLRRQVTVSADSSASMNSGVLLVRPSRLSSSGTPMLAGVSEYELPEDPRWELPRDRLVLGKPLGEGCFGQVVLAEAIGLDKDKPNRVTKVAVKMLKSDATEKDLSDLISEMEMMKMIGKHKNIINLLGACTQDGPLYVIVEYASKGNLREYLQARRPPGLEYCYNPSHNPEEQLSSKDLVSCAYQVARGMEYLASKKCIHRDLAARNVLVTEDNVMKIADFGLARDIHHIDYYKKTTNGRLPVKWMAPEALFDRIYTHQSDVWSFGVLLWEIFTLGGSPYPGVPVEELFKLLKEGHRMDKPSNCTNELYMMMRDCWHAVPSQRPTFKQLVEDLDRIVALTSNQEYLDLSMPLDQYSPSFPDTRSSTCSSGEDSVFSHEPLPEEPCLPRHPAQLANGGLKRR
Chain of PYK2 (Q14289 whole entry, species assumed): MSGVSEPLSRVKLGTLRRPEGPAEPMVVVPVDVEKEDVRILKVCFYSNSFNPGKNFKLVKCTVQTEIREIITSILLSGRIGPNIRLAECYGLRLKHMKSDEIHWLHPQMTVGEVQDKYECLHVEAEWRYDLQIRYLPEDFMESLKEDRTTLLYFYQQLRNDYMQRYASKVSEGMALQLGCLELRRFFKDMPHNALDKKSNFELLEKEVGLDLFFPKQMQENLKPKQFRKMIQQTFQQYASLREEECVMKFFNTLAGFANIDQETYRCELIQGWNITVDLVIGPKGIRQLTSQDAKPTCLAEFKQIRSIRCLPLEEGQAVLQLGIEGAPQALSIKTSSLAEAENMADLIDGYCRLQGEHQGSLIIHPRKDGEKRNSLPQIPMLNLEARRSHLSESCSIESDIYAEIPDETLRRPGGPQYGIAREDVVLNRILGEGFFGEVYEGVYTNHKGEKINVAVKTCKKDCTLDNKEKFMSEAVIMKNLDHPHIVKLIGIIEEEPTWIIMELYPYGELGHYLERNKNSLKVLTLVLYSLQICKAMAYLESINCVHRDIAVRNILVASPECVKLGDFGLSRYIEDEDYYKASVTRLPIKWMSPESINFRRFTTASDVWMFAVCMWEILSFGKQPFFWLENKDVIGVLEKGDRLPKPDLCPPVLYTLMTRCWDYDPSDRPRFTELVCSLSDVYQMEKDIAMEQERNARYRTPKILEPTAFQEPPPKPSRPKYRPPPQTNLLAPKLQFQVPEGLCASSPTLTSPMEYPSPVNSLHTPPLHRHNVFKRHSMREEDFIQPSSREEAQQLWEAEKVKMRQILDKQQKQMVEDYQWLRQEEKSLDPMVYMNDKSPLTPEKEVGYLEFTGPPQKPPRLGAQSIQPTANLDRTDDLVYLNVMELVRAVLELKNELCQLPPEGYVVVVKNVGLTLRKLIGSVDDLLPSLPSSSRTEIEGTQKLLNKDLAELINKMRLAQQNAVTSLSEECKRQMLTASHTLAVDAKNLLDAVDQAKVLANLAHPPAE

Sequence: C AYE AYE AYE K EYA EYA EYA K AYA EYE R (CAYEAYEAYEKEYAEYAEYAKAYAEYER; tyrosine kinase substrate peptide) [BRB1]
- Signal to Noise ratio with BRB1 Peptide (ABL [T315I] (ABL1)): 4.8
- Signal to Noise ratio with BRB1 Peptide (BMX): 7.1
- Signal to Noise ratio with BRB1 Peptide (BTK): 6.8
- Signal to Noise ratio with BRB1 Peptide (FGR): 29.3
- Signal to Noise ratio with BRB1 Peptide (PYK2): 2.9
- Signal to Noise ratio with BRB1 Peptide (SRC): 31.7
- Signal to Noise ratio with BRB1 Peptide (SYK): 24.6
- Signal to Noise ratio with BRB1 Peptide (DGFR [T790M]): 3.3
- Signal to Noise ratio with BRB1 Peptide (FGFR1): 26.4
- Signal to Noise ratio with BRB1 Peptide (FGFR4): 17.7
- Signal to Noise ratio with BRB1 Peptide (MUSK): 3.1
- Signal to Noise ratio with BRB1 Peptide (RET): 20.3
- Signal to Noise ratio with BRB1 Peptide (TRKC (NTRK3)): 6.4
